Laboratory results published in patent publication US20140341917A1 (Merck KGaA, published 2014).
Where a chain is given by its changes, count along the chain named. In names and notes the source's numbering stands. Blank lines part the entries; values can stand above or below the binder they belong to.

Tests used:
human PD-L1 [1] = target: T1, human PD-L1 (human, UniProt Q9NZQ7 19-238, limits assumed); experiment: Biacore; relative to A09-188-1
T1 construct: Protein used in the Biacore assays of 3.1

mouse PD-L1 = target: T2, mouse PD-L1 (mouse, UniProt Q9EP73 19-238, limits assumed); experiment: ELISA, later Biacore and FACS on PD-L1 expressing cells (hit selection, IgG format)
T2 construct: Biacore protein

human PD-L1 [2] = target: T1, human PD-L1; experiment: Biacore kinetic profile
[3] = target: T3, cynomolgus monkey PD-L1 expressed on the HEK cell surface (cynomolgus monkey, UniProt G7PSE7 19-290); experiment: direct FACS binding, HEK cells expressing cynomolgus monkey PD-L1
T3 construct: The sentence prints only 'cynomolgus monkey expressed on the HEK cell surface'

hu-B7.2-huFc = target: T4, hu-B7.2-huFc (human, UniProt P42081 26-245, limits assumed); experiment: Biacore
T4 construct: not shown: human Fc (huFc)
T4 sequence (looked up): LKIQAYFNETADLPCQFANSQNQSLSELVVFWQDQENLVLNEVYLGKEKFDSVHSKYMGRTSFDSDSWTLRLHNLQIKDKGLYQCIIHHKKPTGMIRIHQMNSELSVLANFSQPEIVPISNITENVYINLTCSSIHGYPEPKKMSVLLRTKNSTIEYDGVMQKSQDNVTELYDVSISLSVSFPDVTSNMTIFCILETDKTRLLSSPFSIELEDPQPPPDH

hu-B7.1-huFc = target: T5, hu-B7.1-huFc (human, UniProt P33681 35-242, limits assumed); experiment: Biacore
T5 construct: not shown: human Fc (huFc)
T5 sequence (looked up): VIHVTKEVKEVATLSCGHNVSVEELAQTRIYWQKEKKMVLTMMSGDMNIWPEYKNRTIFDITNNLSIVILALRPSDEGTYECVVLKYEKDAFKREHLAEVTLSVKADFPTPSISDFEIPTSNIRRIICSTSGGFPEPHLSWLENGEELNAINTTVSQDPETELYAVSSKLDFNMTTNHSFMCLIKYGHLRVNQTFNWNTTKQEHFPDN

huB7-H2-huFc = target: T6, huB7-H2-huFc (human, UniProt O75144 19-258, limits assumed); experiment: Biacore
T6 construct: not shown: human Fc (huFc)
T6 sequence (looked up): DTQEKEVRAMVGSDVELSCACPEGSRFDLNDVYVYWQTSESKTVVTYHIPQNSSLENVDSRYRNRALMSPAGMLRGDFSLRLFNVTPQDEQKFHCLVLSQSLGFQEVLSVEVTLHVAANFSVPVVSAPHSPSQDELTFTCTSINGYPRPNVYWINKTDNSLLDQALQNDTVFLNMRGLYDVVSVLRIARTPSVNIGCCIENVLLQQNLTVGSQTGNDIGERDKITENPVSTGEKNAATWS

huB7-H3-huFc = target: T7, huB7-H3-huFc (human, UniProt Q5ZPR3-2 29-245, limits assumed); experiment: Biacore
T7 construct: not shown: human Fc (huFc)
T7 sequence (looked up): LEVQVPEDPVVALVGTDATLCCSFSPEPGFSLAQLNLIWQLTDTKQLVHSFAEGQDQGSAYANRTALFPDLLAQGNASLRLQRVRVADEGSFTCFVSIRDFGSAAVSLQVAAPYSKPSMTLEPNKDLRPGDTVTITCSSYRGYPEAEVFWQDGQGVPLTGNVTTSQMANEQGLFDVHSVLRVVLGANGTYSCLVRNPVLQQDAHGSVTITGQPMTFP

hu-PDL-2-huFc = target: T8, hu-PDL-2-huFc (human, UniProt Q9BQ51 20-219, limits assumed); experiment: Biacore
T8 construct: not shown: human Fc (huFc)
T8 sequence (looked up): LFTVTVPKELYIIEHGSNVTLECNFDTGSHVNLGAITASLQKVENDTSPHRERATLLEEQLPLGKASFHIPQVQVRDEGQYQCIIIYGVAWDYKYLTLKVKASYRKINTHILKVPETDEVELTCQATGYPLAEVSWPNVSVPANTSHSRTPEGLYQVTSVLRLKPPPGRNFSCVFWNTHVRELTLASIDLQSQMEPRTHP

T1 sequence (Q9NZQ7 19-238 limits assumed): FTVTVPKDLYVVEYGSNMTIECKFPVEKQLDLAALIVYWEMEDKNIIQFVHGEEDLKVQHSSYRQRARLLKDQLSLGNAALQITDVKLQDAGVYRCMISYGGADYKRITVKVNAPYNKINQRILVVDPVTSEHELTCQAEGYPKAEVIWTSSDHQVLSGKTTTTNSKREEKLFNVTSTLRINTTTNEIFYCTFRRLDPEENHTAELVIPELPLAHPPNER
T2 sequence (Q9EP73 19-238 limits assumed): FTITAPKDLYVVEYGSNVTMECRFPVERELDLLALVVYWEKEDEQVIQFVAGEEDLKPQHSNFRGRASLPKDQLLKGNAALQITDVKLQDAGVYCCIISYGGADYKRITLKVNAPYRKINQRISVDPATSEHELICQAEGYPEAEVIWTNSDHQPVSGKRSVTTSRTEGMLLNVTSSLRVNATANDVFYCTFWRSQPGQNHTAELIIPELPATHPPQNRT
T3 sequence (G7PSE7 entry or part of it limits assumed): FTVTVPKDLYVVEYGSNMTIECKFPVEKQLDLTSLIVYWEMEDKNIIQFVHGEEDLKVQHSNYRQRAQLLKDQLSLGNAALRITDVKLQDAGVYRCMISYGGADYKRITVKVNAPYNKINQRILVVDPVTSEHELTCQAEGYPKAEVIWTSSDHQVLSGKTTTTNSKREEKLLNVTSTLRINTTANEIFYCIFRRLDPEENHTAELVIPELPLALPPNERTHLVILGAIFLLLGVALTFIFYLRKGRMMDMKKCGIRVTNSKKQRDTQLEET

- Relative KD (human PD-L1 [1]): 1
- binding result (mouse PD-L1): binds
- Kd (human PD-L1 [2]): 5.29 nM
- t½ (human PD-L1 [2]): 0.22 h
B1: A09-188-1 (antibody, human IgG1, lambda, V domains shown)
VH: EVQLLESGGGLVQPGGSLRLSCAASGFTFSMYMMMWVRQAPGKGLEWVSSIYPSGGITFYADSVKGRFTISRDNSKNTLYLQMNSLRAEDTAIYYCARIKLGTVTTVDYWGQGTLVTVSS
VL: QSALTQPASVSGSPGQSITISCTGTSSDVGAYNYVSWYQQHPGKAPKLMIYDVSNRPSGVSNRFSGSKSGNTASLTISGLQAEDEADYYCSSYTSSSTRVFGTGTKVTVLG
notes: Parent antibody, lambda light chain, expressed as IgG

- Relative KD (human PD-L1 [1]): 0.03
- Kd (human PD-L1 [2]): 0.12 nM
- t½ (human PD-L1 [2]): 4.66 h
B2: A09-244-2 (antibody, human IgG1, lambda, V domains shown)
VH: B1 VH with M31S, M33I, M35F, S63T, I93V
VL: B1 VL with A31G
notes: also called VL-A31G; VH-M31S, M33I, M35F, S63T, I93V

- Relative KD (human PD-L1 [1]): 0.02
- Kd (human PD-L1 [2]): 0.1 nM
- t½ (human PD-L1 [2]): 9.64 h
B3: A09-204-1 (antibody, human IgG1, lambda, V domains shown)
VH: B1 VH with M31I, M33I, M35F, S63T, I93V
VL: B1 VL
notes: positions counted from the N-terminus of the chain; also called VH-M31I, M33I, M35F, S63T, I93V

- Relative KD (human PD-L1 [1]): 0.03
- Kd (human PD-L1 [2]): 0.18 nM
- t½ (human PD-L1 [2]): 4.64 h
B4: A09-219-1 (antibody, human IgG1, lambda, V domains shown)
VH: B1 VH with M31S, M33I, M35F, S63T, I93V
VL: B1 VL
notes: also called VH-M31S, M33I, M35F, S63T, I93V

- Relative KD (human PD-L1 [1]): 0.08
- Kd (human PD-L1 [2]): 0.4 nM
- t½ (human PD-L1 [2]): 2.98 h
B5: A09-214-1 (antibody, human IgG1, lambda, V domains shown)
VH: B1 VH with M31I, M33I, S63T, I93V
VL: B1 VL
notes: 193V read as I93V; also called VH-M31I, M33I, S63T, 193V

- Relative KD (human PD-L1 [1]): 0.16
- Kd (human PD-L1 [2]): 0.76 nM
- t½ (human PD-L1 [2]): 0.927 h
B6: A09-242-2 (antibody, human IgG1, lambda, V domains shown)
VH: B1 VH with M33L, M35F, S63T, I93V
VL: B1 VL with A31G
notes: also called VL-A31G; VH-M33L, M35F, S63T, I93V

- t½ (human PD-L1 [2]): 2 h
B7: A09-239-2 (antibody, human IgG1, lambda, V domains shown)
VH: B1 VH with M31I, M33L, M35F, S63T, I93V
VL: B1 VL with A31G
notes: also called VL-A31G; VH-M31I, M33L, M35F, S63T, I93V

- Relative KD (human PD-L1 [1]): 0.16
- Kd (human PD-L1 [2]): 0.76 nM
- t½ (human PD-L1 [2]): 0.963 h
B8: A09-247-2 (antibody, human IgG1, lambda, V domains shown)
VH: B1 VH with M31S, M33L, S63T, I93V
VL: B1 VL with A31G
notes: also called VL-A31G; VH-M31S, M33L, S63T, I93V

- Relative KD (human PD-L1 [1]): 0.02
- Kd (human PD-L1 [2]): 0.1 nM
- t½ (human PD-L1 [2]): 7.27 h
B9: A09-248-2 (antibody, human IgG1, lambda, V domains shown)
VH: B1 VH with M31I, M33I, M35F, S63T, I93V
VL: B1 VL with A31G
notes: also called VL-A31G; VH-M31I, M33I, M35F, S63T, I93V

- Relative KD (human PD-L1 [1]): 0.07
- Kd (human PD-L1 [2]): 0.32 nM
- t½ (human PD-L1 [2]): 2.77 h
B10: A09-241-2 (antibody, human IgG1, lambda, V domains shown)
VH: B1 VH with M31I, M33I, S63T, I93V
VL: B1 VL with A31G
notes: also called VL-A31G; VH-M31I, M33I, S63T, I93V

- t½ (human PD-L1 [2]): 4.24 h
B11: A09-212-1 (antibody, human IgG1, lambda, V domains shown)
VH: B1 VH with M33I, M35F, S63T, I93V
VL: B1 VL
notes: 193V read as I93V; also called VH-M33I, M35F, S63T, 193V

- Relative KD (human PD-L1 [1]): 0.23
- Kd (human PD-L1 [2]): 1.24 nM
- t½ (human PD-L1 [2]): 0.785 h
B12: A09-222-1 (antibody, human IgG1, lambda, V domains shown)
VH: B1 VH with M31S, M33L, S63T, I93V
VL: B1 VL
notes: also called VH-M31S, M33L, S63T, I93V

- t½ (human PD-L1 [2]): 1.42 h
B13: A09-243-2 (antibody, human IgG1, lambda, V domains shown)
VH: B1 VH with M31I, M33L, S63T, I93V
VL: B1 VL with A31G
notes: also called VL-A31G; VH-M31I, M33L, S63T, I93V

- Relative KD (human PD-L1 [1]): 0.78
- Kd (human PD-L1 [2]): 4.15 nM
- t½ (human PD-L1 [2]): 0.313 h
B14: A09-202-1 (antibody, human IgG1, lambda, V domains shown)
VH: B1 VH
VL: B1 VL with A31G
notes: also called VL-A31G

- Relative KD (human PD-L1 [1]): 0.47
- Kd (human PD-L1 [2]): 2.51 nM
- t½ (human PD-L1 [2]): 0.462 h
B15: A09-213-1 (antibody, human IgG1, lambda, V domains shown)
VH: B1 VH with M31I, M35F, S63T, I93V
VL: B1 VL
notes: 193V read as I93V; also called VH-M31I, M35F, S63T, 193V

- t½ (human PD-L1 [2]): 1.29 h
B16: A09-245-2 (antibody, human IgG1, lambda, V domains shown)
VH: B1 VH with M31S, M33L, M35F, S63T, I93V
VL: B1 VL with A31G
notes: also called VL-A31G; VH-M31S, M33L, M35F, S63T, I93V

- Relative KD (human PD-L1 [1]): 0.17
- Kd (human PD-L1 [2]): 0.91 nM
- t½ (human PD-L1 [2]): 1.3 h
B17: A09-216-1 (antibody, human IgG1, lambda, V domains shown)
VH: B1 VH with M31I, M33L, S63T, I93V
VL: B1 VL
notes: 193V read as I93V; also called VH-M31I, M33L, S63T, 193V

- EC50 [3]: 0.94 nM
- binding result (hu-B7.2-huFc): no binding
- binding result (hu-B7.1-huFc): no binding
- binding result (huB7-H2-huFc): no binding
- binding result (huB7-H3-huFc): no binding
- binding result (hu-PDL-2-huFc): no binding
B18: A09-246-2 (antibody, human IgG1, lambda, V domains shown)
VH: B1 VH with M31S, M33I, S63T, I93V
VL: B1 VL with A31G
notes: lambda light chain

- Relative KD (human PD-L1 [1]): 0.68
- Kd (human PD-L1 [2]): 3.62 nM
- t½ (human PD-L1 [2]): 0.225 h
B19: A09-223-1 (antibody, human IgG1, lambda, V domains shown)
VH: B1 VH with M31S, M35F, S63T, I93V
VL: B1 VL
notes: also called VH-M31S, M35F, S63T, I93V

- t½ (human PD-L1 [2]): 1.82 h
B20: A09-211-1 (antibody, human IgG1, lambda, V domains shown)
VH: B1 VH with M31I, M33L, M35F, S63T, I93V
VL: B1 VL
notes: 193V read as I93V; also called VH-M31I, M33L, M35F, S63T, 193V

- Relative KD (human PD-L1 [1]): 0.03
- Kd (human PD-L1 [2]): 0.16 nM
- t½ (human PD-L1 [2]): 4.1 h
B21: A09-240-2 (antibody, human IgG1, lambda, V domains shown)
VH: B1 VH with M33I, M35F, S63T, I93V
VL: B1 VL with A31G
notes: also called VL-A31G; VH-M33I, M35F, S63T, I93V

- t½ (human PD-L1 [2]): 1.14 h
B22: A09-220-1 (antibody, human IgG1, lambda, V domains shown)
VH: B1 VH with M31S, M33L, M35F, S63T, I93V
VL: B1 VL
notes: also called VH-M31S, M33L, M35F, S63T, I93V

- Relative KD (human PD-L1 [1]): 0.24
- Kd (human PD-L1 [2]): 1.28 nM
- t½ (human PD-L1 [2]): 0.843 h
B23: A09-215-1 (antibody, human IgG1, lambda, V domains shown)
VH: B1 VH with M33L, M35F, S63T, I93V
VL: B1 VL
notes: 193V read as I93V; also called VH-M33L, M35F, S63T, 193V
